Source: US20200087373A1 (UNIVERSITY OF COPENHAGEN, published 2020)
Ends that are not written are not given here. * marks the point of attachment. C16 diacid = O=C(O)CCCCCCCCCCCCCCC(=O)*

B1: AT312 [hGIP(3-30)NH2[V23K]-C16diacid/23] (peptide)
peptide: EGTFISDYSIAMDKIHQQDFK(C16 diacid)NWLLAQK-NH2
modifications: N-terminus assumed
SMILES: CC[C@H](C)[C@H](NC(=O)[C@H](CO)NC(=O)[C@H](Cc1ccc(O)cc1)NC(=O)[C@H](CC(=O)O)NC(=O)[C@H](CO)NC(=O)[C@@H](NC(=O)[C@H](Cc1ccccc1)NC(=O)[C@@H](NC(=O)CNC(=O)[C@@H](N)CCC(=O)O)[C@@H](C)O)[C@@H](C)CC)C(=O)N[C@@H](C)C(=O)N[C@@H](CCSC)C(=O)N[C@@H](CC(=O)O)C(=O)N[C@@H](CCCCN)C(=O)N[C@H](C(=O)N[C@@H](Cc1c[nH]cn1)C(=O)N[C@@H](CCC(N)=O)C(=O)N[C@@H](CCC(N)=O)C(=O)N[C@@H](CC(=O)O)C(=O)N[C@@H](Cc1ccccc1)C(=O)N[C@@H](CCCCNC(=O)CCCCCCCCCCCCCCC(=O)O)C(=O)N[C@@H](CC(N)=O)C(=O)N[C@@H](Cc1c[nH]c2ccccc12)C(=O)N[C@@H](CC(C)C)C(=O)N[C@@H](CC(C)C)C(=O)N[C@@H](C)C(=O)N[C@@H](CCC(N)=O)C(=O)N[C@@H](CCCCN)C(N)=O)[C@@H](C)CC
B2: AT310 [hGIP(3-30)NH2[D21K]-C16diacid/21] (peptide)
peptide: EGTFISDYSIAMDKIHQQK(C16 diacid)FVNWLLAQK-NH2
modifications: N-terminus assumed
SMILES: CC[C@H](C)[C@H](NC(=O)[C@H](CO)NC(=O)[C@H](Cc1ccc(O)cc1)NC(=O)[C@H](CC(=O)O)NC(=O)[C@H](CO)NC(=O)[C@@H](NC(=O)[C@H](Cc1ccccc1)NC(=O)[C@@H](NC(=O)CNC(=O)[C@@H](N)CCC(=O)O)[C@@H](C)O)[C@@H](C)CC)C(=O)N[C@@H](C)C(=O)N[C@@H](CCSC)C(=O)N[C@@H](CC(=O)O)C(=O)N[C@@H](CCCCN)C(=O)N[C@H](C(=O)N[C@@H](Cc1c[nH]cn1)C(=O)N[C@@H](CCC(N)=O)C(=O)N[C@@H](CCC(N)=O)C(=O)N[C@@H](CCCCNC(=O)CCCCCCCCCCCCCCC(=O)O)C(=O)N[C@@H](Cc1ccccc1)C(=O)N[C@H](C(=O)N[C@@H](CC(N)=O)C(=O)N[C@@H](Cc1c[nH]c2ccccc12)C(=O)N[C@@H](CC(C)C)C(=O)N[C@@H](CC(C)C)C(=O)N[C@@H](C)C(=O)N[C@@H](CCC(N)=O)C(=O)N[C@@H](CCCCN)C(N)=O)C(C)C)[C@@H](C)CC
B3: AT313 [hGIP(3-30)NH2[N24K]-C16diacid/24] (peptide)
peptide: EGTFISDYSIAMDKIHQQDFVK(C16 diacid)WLLAQK-NH2
modifications: N-terminus assumed
SMILES: CC[C@H](C)[C@H](NC(=O)[C@H](CO)NC(=O)[C@H](Cc1ccc(O)cc1)NC(=O)[C@H](CC(=O)O)NC(=O)[C@H](CO)NC(=O)[C@@H](NC(=O)[C@H](Cc1ccccc1)NC(=O)[C@@H](NC(=O)CNC(=O)[C@@H](N)CCC(=O)O)[C@@H](C)O)[C@@H](C)CC)C(=O)N[C@@H](C)C(=O)N[C@@H](CCSC)C(=O)N[C@@H](CC(=O)O)C(=O)N[C@@H](CCCCN)C(=O)N[C@H](C(=O)N[C@@H](Cc1c[nH]cn1)C(=O)N[C@@H](CCC(N)=O)C(=O)N[C@@H](CCC(N)=O)C(=O)N[C@@H](CC(=O)O)C(=O)N[C@@H](Cc1ccccc1)C(=O)N[C@H](C(=O)N[C@@H](CCCCNC(=O)CCCCCCCCCCCCCCC(=O)O)C(=O)N[C@@H](Cc1c[nH]c2ccccc12)C(=O)N[C@@H](CC(C)C)C(=O)N[C@@H](CC(C)C)C(=O)N[C@@H](C)C(=O)N[C@@H](CCC(N)=O)C(=O)N[C@@H](CCCCN)C(N)=O)C(C)C)[C@@H](C)CC
B4: AT309 [hGIP(3-30)NH2[Q20K]-C16diacid/20] (peptide)
peptide: EGTFISDYSIAMDKIHQK(C16 diacid)DFVNWLLAQK-NH2
modifications: N-terminus assumed
SMILES: CC[C@H](C)[C@H](NC(=O)[C@H](CO)NC(=O)[C@H](Cc1ccc(O)cc1)NC(=O)[C@H](CC(=O)O)NC(=O)[C@H](CO)NC(=O)[C@@H](NC(=O)[C@H](Cc1ccccc1)NC(=O)[C@@H](NC(=O)CNC(=O)[C@@H](N)CCC(=O)O)[C@@H](C)O)[C@@H](C)CC)C(=O)N[C@@H](C)C(=O)N[C@@H](CCSC)C(=O)N[C@@H](CC(=O)O)C(=O)N[C@@H](CCCCN)C(=O)N[C@H](C(=O)N[C@@H](Cc1c[nH]cn1)C(=O)N[C@@H](CCC(N)=O)C(=O)N[C@@H](CCCCNC(=O)CCCCCCCCCCCCCCC(=O)O)C(=O)N[C@@H](CC(=O)O)C(=O)N[C@@H](Cc1ccccc1)C(=O)N[C@H](C(=O)N[C@@H](CC(N)=O)C(=O)N[C@@H](Cc1c[nH]c2ccccc12)C(=O)N[C@@H](CC(C)C)C(=O)N[C@@H](CC(C)C)C(=O)N[C@@H](C)C(=O)N[C@@H](CCC(N)=O)C(=O)N[C@@H](CCCCN)C(N)=O)C(C)C)[C@@H](C)CC
B5: AT308 [hGIP(3-30)NH2[Q19K]-C16diacid/19] (peptide)
peptide: EGTFISDYSIAMDKIHK(C16 diacid)QDFVNWLLAQK-NH2
modifications: N-terminus assumed
SMILES: CC[C@H](C)[C@H](NC(=O)[C@H](CO)NC(=O)[C@H](Cc1ccc(O)cc1)NC(=O)[C@H](CC(=O)O)NC(=O)[C@H](CO)NC(=O)[C@@H](NC(=O)[C@H](Cc1ccccc1)NC(=O)[C@@H](NC(=O)CNC(=O)[C@@H](N)CCC(=O)O)[C@@H](C)O)[C@@H](C)CC)C(=O)N[C@@H](C)C(=O)N[C@@H](CCSC)C(=O)N[C@@H](CC(=O)O)C(=O)N[C@@H](CCCCN)C(=O)N[C@H](C(=O)N[C@@H](Cc1c[nH]cn1)C(=O)N[C@@H](CCCCNC(=O)CCCCCCCCCCCCCCC(=O)O)C(=O)N[C@@H](CCC(N)=O)C(=O)N[C@@H](CC(=O)O)C(=O)N[C@@H](Cc1ccccc1)C(=O)N[C@H](C(=O)N[C@@H](CC(N)=O)C(=O)N[C@@H](Cc1c[nH]c2ccccc12)C(=O)N[C@@H](CC(C)C)C(=O)N[C@@H](CC(C)C)C(=O)N[C@@H](C)C(=O)N[C@@H](CCC(N)=O)C(=O)N[C@@H](CCCCN)C(N)=O)C(C)C)[C@@H](C)CC
B6: AT311 [hGIP(3-30)NH2[F22K]-C16diacid/22] (peptide)
peptide: EGTFISDYSIAMDKIHQQDK(C16 diacid)VNWLLAQK-NH2
modifications: N-terminus assumed
SMILES: CC[C@H](C)[C@H](NC(=O)[C@H](CO)NC(=O)[C@H](Cc1ccc(O)cc1)NC(=O)[C@H](CC(=O)O)NC(=O)[C@H](CO)NC(=O)[C@@H](NC(=O)[C@H](Cc1ccccc1)NC(=O)[C@@H](NC(=O)CNC(=O)[C@@H](N)CCC(=O)O)[C@@H](C)O)[C@@H](C)CC)C(=O)N[C@@H](C)C(=O)N[C@@H](CCSC)C(=O)N[C@@H](CC(=O)O)C(=O)N[C@@H](CCCCN)C(=O)N[C@H](C(=O)N[C@@H](Cc1c[nH]cn1)C(=O)N[C@@H](CCC(N)=O)C(=O)N[C@@H](CCC(N)=O)C(=O)N[C@@H](CC(=O)O)C(=O)N[C@@H](CCCCNC(=O)CCCCCCCCCCCCCCC(=O)O)C(=O)N[C@H](C(=O)N[C@@H](CC(N)=O)C(=O)N[C@@H](Cc1c[nH]c2ccccc12)C(=O)N[C@@H](CC(C)C)C(=O)N[C@@H](CC(C)C)C(=O)N[C@@H](C)C(=O)N[C@@H](CCC(N)=O)C(=O)N[C@@H](CCCCN)C(N)=O)C(C)C)[C@@H](C)CC

Target: T1, human GIP receptor (human, UniProt P48546 22-466)
T1 sequence (looked up): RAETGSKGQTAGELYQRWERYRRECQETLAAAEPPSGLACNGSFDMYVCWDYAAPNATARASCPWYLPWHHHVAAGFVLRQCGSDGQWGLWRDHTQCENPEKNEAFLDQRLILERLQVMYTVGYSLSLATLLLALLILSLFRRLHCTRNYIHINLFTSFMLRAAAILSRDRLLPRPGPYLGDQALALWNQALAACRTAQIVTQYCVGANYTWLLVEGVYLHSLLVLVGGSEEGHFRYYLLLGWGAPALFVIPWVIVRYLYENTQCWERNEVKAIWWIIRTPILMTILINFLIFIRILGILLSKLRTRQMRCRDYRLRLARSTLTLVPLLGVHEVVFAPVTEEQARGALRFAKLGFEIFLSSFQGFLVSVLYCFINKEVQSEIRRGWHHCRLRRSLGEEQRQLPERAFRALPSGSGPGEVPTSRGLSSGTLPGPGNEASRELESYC
Test: cell-based or functional assay

Row | Binder | cAMP agonism, EC50 (log) | cAMP agonism, Emax | cAMP agonism, nM (EC50) | cAMP antagonism, log (IC50) | cAMP antagonism, nM (IC50)
1 | B1 | -5.4 log M | 54% | 4080 nM | – | –
2 | B2 | -7.4 log M | 6.2% | 39 nM | -7.3 log M | 49 nM
3 | B3 | -7 log M | 7.2% | 97 nM | -6.5 log M | 348 nM
4 | B4 | – | – | – | -7.4 log M | 36 nM
5 | B5 | -7.5 log M | 7.9% | 34 nM | -6.9 log M | 132 nM
6 | B6 | -6.1 log M | 17.5% | 784 nM | -6 log M | 923 nM
